# Measured values published in paper PMC9482650, “Quantitative fragmentomics allow affinity mapping of interactomes” (Nature Communications, 2022).
# T1: MPP2, Q14168
# T1 sequence (Q14168 180-250, limits assumed, looked up): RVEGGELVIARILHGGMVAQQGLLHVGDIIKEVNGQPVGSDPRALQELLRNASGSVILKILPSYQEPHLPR
# T2: PARD3B_1, Q8TEW8
# T2 sequence (Q8TEW8 196-299, limits assumed, looked up): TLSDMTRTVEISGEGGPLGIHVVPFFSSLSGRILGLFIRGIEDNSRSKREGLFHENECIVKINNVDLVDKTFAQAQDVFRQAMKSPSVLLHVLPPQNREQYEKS
# T3: SHANK1, Q9Y566
# T3 sequence (Q9Y566 658-767, limits assumed, looked up): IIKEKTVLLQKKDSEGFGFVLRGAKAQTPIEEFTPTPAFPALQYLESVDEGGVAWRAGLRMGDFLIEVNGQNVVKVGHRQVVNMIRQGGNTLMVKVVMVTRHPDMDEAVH
# T4: SNTG2, Q9NY99
# T4 sequence (Q9NY99 68-166, limits assumed, looked up): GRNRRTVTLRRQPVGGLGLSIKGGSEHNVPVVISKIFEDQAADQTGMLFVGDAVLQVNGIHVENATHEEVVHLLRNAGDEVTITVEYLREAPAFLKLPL
# T5: GRIP1_4, Q9Y3R0
# T5 sequence (Q9Y3R0 467-571, limits assumed, looked up): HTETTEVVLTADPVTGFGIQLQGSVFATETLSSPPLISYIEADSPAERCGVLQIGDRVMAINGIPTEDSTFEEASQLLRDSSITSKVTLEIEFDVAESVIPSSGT
# T6: LNX2_2, Q8N448
# T6 sequence (Q8N448 334-432, limits assumed, looked up): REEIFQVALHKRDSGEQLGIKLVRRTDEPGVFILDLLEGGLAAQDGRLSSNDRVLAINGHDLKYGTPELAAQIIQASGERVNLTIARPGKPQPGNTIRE
# T7: PDZD7_3, Q9H5P4
# T7 sequence (Q9H5P4 857-944, limits assumed, looked up): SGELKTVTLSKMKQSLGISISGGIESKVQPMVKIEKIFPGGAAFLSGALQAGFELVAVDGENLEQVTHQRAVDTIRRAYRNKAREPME
# T8: DFNB31_1, Q9P202
# T8 sequence (Q9P202 135-233, limits assumed, looked up): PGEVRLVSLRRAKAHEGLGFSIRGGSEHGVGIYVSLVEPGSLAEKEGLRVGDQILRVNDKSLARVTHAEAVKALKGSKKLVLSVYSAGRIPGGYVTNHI
# T9: DFNB31_2, Q9P202
# T9 sequence (Q9P202 274-371, limits assumed, looked up): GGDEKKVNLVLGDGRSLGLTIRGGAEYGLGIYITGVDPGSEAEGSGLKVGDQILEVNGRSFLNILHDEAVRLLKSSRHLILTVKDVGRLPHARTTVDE
# T10: SIPA1L2, Q9P2F8
# T10 sequence (Q9P2F8 945-1036, limits assumed, looked up): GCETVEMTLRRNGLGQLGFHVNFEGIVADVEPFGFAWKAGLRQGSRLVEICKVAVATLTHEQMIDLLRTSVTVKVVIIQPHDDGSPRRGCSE
# T11: CARD11, Q9BXL7
# T11 sequence (Q9BXL7 662-765, limits assumed, looked up): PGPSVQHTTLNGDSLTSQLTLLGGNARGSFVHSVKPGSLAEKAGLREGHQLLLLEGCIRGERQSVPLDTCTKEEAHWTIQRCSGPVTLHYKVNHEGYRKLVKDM
# T12: PTPN13_1, Q12923
# T12 sequence (Q12923 1088-1188, limits assumed, looked up): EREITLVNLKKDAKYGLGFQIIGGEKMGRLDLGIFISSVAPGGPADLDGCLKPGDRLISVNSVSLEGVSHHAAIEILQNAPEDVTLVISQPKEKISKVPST
# Experiments:
# Experiment in all cases: holdup assay
# Parameters in all cases: key: below the threshold = too weak to quantify, mostly under pKd 3.1 to 4
# Settings in all cases: plain residues with an end cap or a label only (N-terminal biotin on a linker: ado-ado)
# MPP2, Q14168 = biological target: T1, MPP2, Q14168
# DLG4_1, P78352 = biological target: DLG4_1, P78352
# PARD3B_1, Q8TEW8 = biological target: T2, PARD3B_1, Q8TEW8
# LNX1_1, Q8TBB1 = biological target: LNX1_1, Q8TBB1
# GRASP, Q7Z6J2 = biological target: GRASP, Q7Z6J2
# SHANK1, Q9Y566 = biological target: T3, SHANK1, Q9Y566
# SNTG2, Q9NY99 = biological target: T4, SNTG2, Q9NY99
# GRIP1_4, Q9Y3R0 = biological target: T5, GRIP1_4, Q9Y3R0
# MAGI1_1, Q96QZ7 = biological target: MAGI1_1, Q96QZ7
# LDB3, O75112 = biological target: LDB3, O75112
# NHERF4_1, Q86UT5-2 = biological target: NHERF4_1, Q86UT5-2
# IL16_1, Q14005 = biological target: IL16_1, Q14005
# SCRIB_3, Q14160 = biological target: SCRIB_3, Q14160
# MAGI2_6, Q86UL8 = biological target: MAGI2_6, Q86UL8
# GIPC2, Q8TF65 = biological target: GIPC2, Q8TF65
# LNX2_2, Q8N448 = biological target: T6, LNX2_2, Q8N448
# PDZD7_3, Q9H5P4 = biological target: T7, PDZD7_3, Q9H5P4
# Inadl_9, Q8NI35 = biological target: Inadl_9, Q8NI35
# GRID2IP_2, A4D2P6 = biological target: GRID2IP_2, A4D2P6
# DFNB31_1, Q9P202 = biological target: T8, DFNB31_1, Q9P202
# DFNB31_2, Q9P202 = biological target: T9, DFNB31_2, Q9P202
# NHERF2_2, Q15599 = biological target: NHERF2_2, Q15599
# SIPA1L2, Q9P2F8 = biological target: T10, SIPA1L2, Q9P2F8
# CARD11, Q9BXL7 = biological target: T11, CARD11, Q9BXL7
# PTPN13_1, Q12923 = biological target: T12, PTPN13_1, Q12923
# Chain of GRASP, Q7Z6J2 (Q7Z6J2 96-193): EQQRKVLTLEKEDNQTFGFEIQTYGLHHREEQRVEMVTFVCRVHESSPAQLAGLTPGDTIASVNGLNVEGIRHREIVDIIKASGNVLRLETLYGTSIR
# Chain of LDB3, O75112 (O75112 1-94): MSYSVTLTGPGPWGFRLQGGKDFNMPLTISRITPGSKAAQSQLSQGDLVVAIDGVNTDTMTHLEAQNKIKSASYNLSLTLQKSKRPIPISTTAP
# Chain of SCRIB_3, Q14160 (Q14160 999-1103): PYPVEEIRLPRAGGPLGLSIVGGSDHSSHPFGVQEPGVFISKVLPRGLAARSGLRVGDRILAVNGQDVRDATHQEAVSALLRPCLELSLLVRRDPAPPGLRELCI
# Chain of MAGI1_1, Q96QZ7 (Q96QZ7 1-106): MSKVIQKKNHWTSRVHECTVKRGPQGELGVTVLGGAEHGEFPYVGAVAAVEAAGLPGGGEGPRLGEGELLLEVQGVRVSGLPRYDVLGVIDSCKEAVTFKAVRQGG
# Chain of MAGI2_6, Q86UL8 (Q86UL8 1141-1229): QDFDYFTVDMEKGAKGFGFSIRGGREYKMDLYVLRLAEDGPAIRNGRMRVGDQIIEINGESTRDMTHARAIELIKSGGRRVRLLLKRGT
# Chain of DLG4_1, P78352 (P78352 62-152): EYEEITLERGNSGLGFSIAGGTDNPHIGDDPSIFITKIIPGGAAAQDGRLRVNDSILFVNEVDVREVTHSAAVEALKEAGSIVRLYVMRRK
# Chain of IL16_1, Q14005 (Q14005 210-306): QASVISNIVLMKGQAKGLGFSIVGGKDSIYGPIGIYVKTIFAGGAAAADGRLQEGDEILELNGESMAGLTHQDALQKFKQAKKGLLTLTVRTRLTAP
# Chain of LNX1_1, Q8TBB1 (Q8TBB1 261-371): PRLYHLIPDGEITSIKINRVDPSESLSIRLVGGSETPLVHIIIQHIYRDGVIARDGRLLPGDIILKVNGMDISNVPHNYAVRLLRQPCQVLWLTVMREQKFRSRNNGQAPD
# Chain of GIPC2, Q8TF65 (Q8TF65 112-203): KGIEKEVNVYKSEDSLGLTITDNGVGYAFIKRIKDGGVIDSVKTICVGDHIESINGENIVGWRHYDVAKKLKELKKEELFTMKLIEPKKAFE
# Chain of NHERF2_2, Q15599 (Q15599 142-238): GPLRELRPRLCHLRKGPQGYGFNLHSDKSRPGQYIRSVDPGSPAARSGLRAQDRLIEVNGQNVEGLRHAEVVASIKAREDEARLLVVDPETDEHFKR
# Chain of Inadl_9, Q8NI35 (Q8NI35 1530-1615): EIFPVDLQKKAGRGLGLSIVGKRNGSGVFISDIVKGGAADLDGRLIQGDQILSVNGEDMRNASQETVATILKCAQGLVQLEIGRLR
# Chain of GRID2IP_2, A4D2P6 (A4D2P6 272-370): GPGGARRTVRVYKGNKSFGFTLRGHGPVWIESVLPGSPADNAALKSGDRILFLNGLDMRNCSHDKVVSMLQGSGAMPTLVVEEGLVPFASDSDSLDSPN
# Chain of NHERF4_1, Q86UT5-2 (Q86UT5 other isoform, or with tags, fused parts or gaps): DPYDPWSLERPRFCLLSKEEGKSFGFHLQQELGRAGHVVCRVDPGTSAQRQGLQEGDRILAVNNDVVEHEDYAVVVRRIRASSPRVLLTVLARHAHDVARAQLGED
Binder,"pKd (MPP2, Q14168)","pKd (DLG4_1, P78352)","pKd (PARD3B_1, Q8TEW8)","pKd (LNX1_1, Q8TBB1)","pKd (GRASP, Q7Z6J2)","pKd (SHANK1, Q9Y566)","pKd (SNTG2, Q9NY99)","pKd (GRIP1_4, Q9Y3R0)","pKd (MAGI1_1, Q96QZ7)","pKd (LDB3, O75112)","pKd (NHERF4_1, Q86UT5-2)","pKd (IL16_1, Q14005)","pKd (SCRIB_3, Q14160)","pKd (MAGI2_6, Q86UL8)","pKd (GIPC2, Q8TF65)","pKd (LNX2_2, Q8N448)","pKd (PDZD7_3, Q9H5P4)","pKd (Inadl_9, Q8NI35)","pKd (GRID2IP_2, A4D2P6)","pKd (DFNB31_1, Q9P202)",further results
"SAGADSETHC [SLCO1B1, Q9Y6L6]",below the threshold,below the threshold,below the threshold,below the threshold,below the threshold,below the threshold,3.61,below the threshold,below the threshold,below the threshold,below the threshold,below the threshold,3.88,below the threshold,3.71,below the threshold,below the threshold,below the threshold,below the threshold,below the threshold,"pKd (DFNB31_2, Q9P202): below the threshold; pKd (NHERF2_2, Q15599): 3.72; pKd (SIPA1L2, Q9P2F8): 3.49; pKd (CARD11, Q9BXL7): below the threshold; pKd (PTPN13_1, Q12923): below the threshold"
"WAKEKQHTRL [SLC17A1, Q14916]",below the threshold,3.82,4.31,3.47,4.71,4.91,4.15,below the threshold,below the threshold,below the threshold,4.07,below the threshold,4.11,below the threshold,below the threshold,below the threshold,4.87,below the threshold,4.25,3.65,"pKd (DFNB31_2, Q9P202): below the threshold; pKd (NHERF2_2, Q15599): 4.39; pKd (SIPA1L2, Q9P2F8): below the threshold; pKd (CARD11, Q9BXL7): below the threshold; pKd (PTPN13_1, Q12923): below the threshold"
"GVHSNDHSVV [LPAR1, Q92633]",below the threshold,below the threshold,below the threshold,below the threshold,4.47,below the threshold,below the threshold,below the threshold,below the threshold,below the threshold,below the threshold,4.02,below the threshold,below the threshold,below the threshold,4.26,3.68,below the threshold,3.96,below the threshold,"pKd (DFNB31_2, Q9P202): below the threshold; pKd (NHERF2_2, Q15599): below the threshold; pKd (SIPA1L2, Q9P2F8): below the threshold; pKd (CARD11, Q9BXL7): below the threshold; pKd (PTPN13_1, Q12923): below the threshold"
"YAEKRMLTEV [KCNA6, P17658]",below the threshold,3.65,below the threshold,below the threshold,4.32,below the threshold,below the threshold,below the threshold,below the threshold,below the threshold,below the threshold,below the threshold,3.52,below the threshold,below the threshold,4.04,4.95,below the threshold,3.72,below the threshold,"pKd (DFNB31_2, Q9P202): below the threshold; pKd (NHERF2_2, Q15599): below the threshold; pKd (SIPA1L2, Q9P2F8): below the threshold; pKd (CARD11, Q9BXL7): below the threshold; pKd (PTPN13_1, Q12923): below the threshold"
